Test results: the nanobody polyreactivity screen of Harvey et al. (2022)

Test: yeast display, Sf9 membrane polyspecificity reagent, FACS + sequencing; frameworks hold sequencing errors
Procedure, shortened: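 In a synthetic yeast display library (Saccharomyces cerevisiae BJ5465), nanobody expression was induced with galactose for 36–48 hours. FACS gates were set low and high (top ~1%) using anti-HA fluorescence for expression and streptavidin fluorescence for binding of the Sf9 membrane reagent. Each polyreactivity label is drawn from the gate of origin.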

| Sequence | polyreactivity (PSR sort gate) |
| --- | --- |
| QVQLVESGGGLVQAGGSLRLSCAASGNTFVQNTMGWYRQAPGKERELVAAISSRGGSTYYADSVKGRFTISRDNAKNTVYLQMNSLKPEDTAVYYCAARSKVRRSYDYRGQGTQVTVSS | high polyreactivity |
| QVQLVESGGGLVQAGGSLRLSCAASGNTFVRNAMGWYRQAPGKERELVAAMSSRGTSTYYADSVKGRFTISRDNAKNTVYLQMNSLKPEDTAVYYCAAYQYPADFKLYYYWGQGTQVTVSS | high polyreactivity |
| QVQLVESGGGLVQAGGSLRLSCAASGNTFVYYAMGWYRQAPGKERELVAAISSSGGRTYYADSVKGRFTISRDNAKNTVYLQMNSLKPEDTAVYYCAARGPYTTKAYDYWGQGTQVTVSS | high polyreactivity |
| QVQLVESGGGLVQAGGSLRLSCAASGNTFWKYAMGWYRQAPGKERELVAAITRGGARTYYADSVKGRFTISRDNAKYSVYLQINSLNPEDTAVYYCAAQYWTEYGSWGQGTEVTVSS | low polyreactivity |
| QVQLVESGGGLVQAGGSLRLSCAASGNTFWSYTMGWYRQAPGKERELVAAITRSGGSTYYADSVKGRFTISRDHAKNTVYLQMNSLKPEDTAVYYCAADYYSASRFGYWGQGTQVTVSS | high polyreactivity |
| QVQLVESGGGLVQAGGSLRLSCAASGNTFYGYAMGWYRQAPGKERELVASITLSGDSMYYADSVKGRFTISRDNAKNTVYLQMNSLIPDDTAVYYCNADWYFQYPYDYWGQGTQVSVSS | low polyreactivity |
| QVQLVESGGGLVQAGGSLRLSCAASGNTFYGYAMGWYRQAPGKERELVASITLSGDSTYYADSVKGRFTISRDNAKNTVYLQMNSLKPEDTAVYDCAGVYTYPLGYYHYTYDYWGQGTQVTVSS | low polyreactivity |
| QVQLVESGGGLVQAGGSLRLSCAASGNTFYGYAMGWYSQAPGQERELVASITLSGDSTYYADSVKGRFTISRDNAKNTVYLQMNTLKPEDTAVYYCAGVYTYPLGYYHYTYDYWGQGTQVTVSS | low polyreactivity |
| QVQLVESGGGLVQAGGSLRLSCAASGNTFYGYTMGWYIQAPGKDRELVAAISGRGGSTTYADSVKGRFTISRDNAKNTVYLQMNSLNPEDTAVYYCAATYVYIRTRFYYWGQGTQVTVSS | high polyreactivity |
| QVQLVESGGGLVQAGGSLRLSCAASGNTFYKYAMGWYRQAPGKERELVADISWSGGSTYYADSVKGRFTISRDNAKNTVYLQMNSLKREDTAVYYCNADTPVWDGHAYPVDYWGQGTQVTVSS | low polyreactivity |
| QVQLVESGGGLVQAGGSLRLSCAASGNTFYPHAMGWYRQAPGTERELVAAISSTGGRTYYADSVKGRFTISRDNAKNTVYLQMNSLKPEDTAVYFCNTYACVAGDYWGQGTQVTVSS | high polyreactivity |
| QVQLVESGGGLVQAGGSLRLSCAASGNTFYPYAMGWYRQAPGKERELVAAISFSSGSTYYADSVKGRFTISRDNAKNTVYLQMNSLKPEETAVYYCAAEANGNFAWWEYYYWGQGTQVTVSS | high polyreactivity |
| QVQLVESGGGLVQAGGSLRLSCAASGNTFYPYAMGWYRQAPGKERELVAAITSSGGSTYYADSVKGRFTISRDNAKNTVYLQMNSLKPEDTAVYYCAADPDWYSPFKYCYWGQGTQVTVSS | low polyreactivity |
| QVQLVESGGGLVQAGGSLRLSCAASGNTFYRNAMGWYRQAPGKERELVAGISNGGSTNYADSVKGRFTISRDNAKNTVYLQMNSLKPEDTAVYYCAKDEPKVSRAFDYWGQGTQVTVSS | low polyreactivity |
| QVQLVESGGGLVQAGGSLRLSCAASGNTFYRYAMGWYRQAPGKERELVAAITWSGSRTYYADSVKGRFTISRDNAKNTVYLQMNSLKPEDTAVYYCAAPFWYVGPAMDYWGQGTQVTVSS | low polyreactivity |
| QVQLVESGGGLVQAGGSLRLSCAASGNTFYSYAMGWYRQAPGKERELVAAITWGGRTKYADSVKGRFTISRDNAKNTVYLQMNSLKPEDTAVYYCAARLYHGKTKYDYWGQGTQVTVSS | high polyreactivity |
| QVQLVESGGGLVQAGGSLRLSCAASGNTFYTNVMGWYRQAPGKERELVAAITQSGARTYYADSVKGRFTISRDNAKNTVYLQMNSLKPEDTAVYYCASEHYFYRDYPYEFWGQGTQVTVSS | high polyreactivity |
